According to patent publication US20230105714A1:
Values belong to the molecule of their own block, whether it stands above or below them.

Tests used:
[1] = molecular target: cynomolgus TIM-3 ECD Fc fusion (made in-house) (cynomolgus monkey (Macaca fascicularis); human); test: SPR (IBIS MX96), TIM-3 ECD-Fc captured, Fab injected 1-100 nM, 1:1 fit
[2] = molecular target: cynomolgus TIM-3 Fc fusion antigen (Sino Biologicals) (cynomolgus monkey); test: ELISA, TIM-3 Fc fusion coated at 1 ug/ml, antibody titrated from 1000 nM
cynomolgus TIM-3 Fc fusion antigen (Sino Biologicals) (cynomolgus monkey), sequence (chain, as listed by the source limits assumed): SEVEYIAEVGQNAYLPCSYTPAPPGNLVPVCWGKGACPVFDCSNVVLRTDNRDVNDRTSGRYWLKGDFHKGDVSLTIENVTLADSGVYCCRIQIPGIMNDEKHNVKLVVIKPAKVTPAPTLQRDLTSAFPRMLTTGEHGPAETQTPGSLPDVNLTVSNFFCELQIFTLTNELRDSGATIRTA

[3] = molecular target: cynomolgus TIM-3 Fc fusion antigen (Sino Biologicals) (cynomolgus monkey); test: ELISA, EC50 on cynomolgus TIM-3 against EC50 on human TIM-3

cynomolgus TIM-3 ECD Fc fusion (made in-house) (cynomolgus monkey (Macaca fascicularis); human), sequence (chain, as listed by the source limits assumed): as above

- Kd [1]: 25 nM
Molecule: Fab fragment of 18564 ABTIM3 (reference analogue)

- EC50 [2]: 9.42 nM
- Ratio Cynomolgus/Human EC50 [3]: 47
B1: antibody 19416 (antibody, V domains shown)
VH: QVQLVESGPGLVKPSQTLSLTCTVSGGSINSGGYYWSWIRQHPGKGLEWIGYIYYSGSIYYNPSLRSRLTISVDTSKNQFSLKLSSVTAADTAVYYCATPYYYGSGSYGDYWGQGTLVTVSS
VL: DIQMTQSPATLSLSPGERATLSCRASQSVNNYLAWYQQKPGQAPRLLIYDASNRATGIPARFSGSGSGTDFTLTISSLEPEDFAVYYCQQRSNWPITFGQGTRLEIK
